Converted amounts (≈) assume the structure as drawn.
Tests used:
Escherichia coli [1] = assay: Antimicrobial activity Escherichia coli DH5alpha expressing beta lactamase VIM-2 by agar macrodilution method; format: functional
Escherichia coli [2] = assay: Antimicrobial activity Escherichia coli DH5alpha expressing metallo-beta-lactamase VIM-11 by agar macrodilution method; format: functional
Pseudomonas aeruginosa = assay: Ratio of Kcat to Km for Pseudomonas aeruginosa COL-1 metallo-beta lactamase VIM-2 over Kcat to Km for Pseudomonas aeruginosa M5109 metallo-beta-lactamase VIM-11
Escherichia coli [3] = assay: Antimicrobial activity Escherichia coli DH5alpha harboring bacteriophage T4 plasmid alpha omega by agar macrodilution method; format: functional
[4] = test system: CC1(C)S[C@@H]2[C@H](NC(=O)[C@H](N)c3ccccc3)C(=O)N2[C@H]1C(=O)O; assay: (§1) Ratio of Kcat to Km for Pseudomonas aeruginosa M5109 metallo-beta-lactamase VIM-11
[5] = test system: O=C(Cc1cccs1)N[C@@H]1C(=O)N2C(C(=O)O)=C(/C=C/c3ccc([N+](=O)[O-])cc3[N+](=O)[O-])CS[C@H]12; assay: as §1
[6] = test system: CC(=O)OCC1=C(C(=O)O)N2C(=O)[C@@H](NC(=O)Cc3cccs3)[C@H]2SC1; assay: as §1
[7] = test system: CO[C@@]1(NC(=O)Cc2cccs2)C(=O)N2C(C(=O)O)=C(COC(N)=O)CS[C@@H]21; assay: as §1
[8] = test system: CC(C)(O/N=C(\C(=O)N[C@@H]1C(=O)N2C(C(=O)[O-])=C(C[n+]3ccccc3)CS[C@H]12)c1csc(N)n1)C(=O)O; assay: as §1
[9] = test system: CO/N=C(\C(=O)N[C@@H]1C(=O)N2C(C(=O)O)=C(COC(C)=O)CS[C@H]12)c1csc(N)n1; assay: as §1
[10] = test system: CO/N=C(\C(=O)N[C@@H]1C(=O)N2C(C(=O)[O-])=C(C[n+]3cccc4c3CCC4)CS[C@H]12)c1csc(N)n1; assay: as §1
[11] = test system: CO/N=C(\C(=O)N[C@@H]1C(=O)N2C(C(=O)O)=C(COC(N)=O)CS[C@H]12)c1ccco1; assay: as §1
[12] = test system: C[C@@H](O)[C@H]1C(=O)N2C(C(=O)O)=C(S[C@@H]3CN[C@H](C(=O)N(C)C)C3)[C@H](C)[C@H]12; assay: as §1
[13] = test system: CC1(C)S[C@@H]2[C@H](NC(=O)[C@H](N)c3ccccc3)C(=O)N2[C@H]1C(=O)O; assay: (§2) Activity at Pseudomonas aeruginosa M5109 metallo-beta-lactamase VIM-11 by spectrometry
[14] = test system: O=C(Cc1cccs1)N[C@@H]1C(=O)N2C(C(=O)O)=C(/C=C/c3ccc([N+](=O)[O-])cc3[N+](=O)[O-])CS[C@H]12; assay: as §2
[15] = test system: CC(=O)OCC1=C(C(=O)O)N2C(=O)[C@@H](NC(=O)Cc3cccs3)[C@H]2SC1; assay: as §2
[16] = test system: CO[C@@]1(NC(=O)Cc2cccs2)C(=O)N2C(C(=O)O)=C(COC(N)=O)CS[C@@H]21; assay: as §2
[17] = test system: CC(C)(O/N=C(\C(=O)N[C@@H]1C(=O)N2C(C(=O)[O-])=C(C[n+]3ccccc3)CS[C@H]12)c1csc(N)n1)C(=O)O; assay: as §2
[18] = test system: CO/N=C(\C(=O)N[C@@H]1C(=O)N2C(C(=O)O)=C(COC(C)=O)CS[C@H]12)c1csc(N)n1; assay: as §2
[19] = test system: CO/N=C(\C(=O)N[C@@H]1C(=O)N2C(C(=O)[O-])=C(C[n+]3cccc4c3CCC4)CS[C@H]12)c1csc(N)n1; assay: as §2
[20] = test system: CO/N=C(\C(=O)N[C@@H]1C(=O)N2C(C(=O)O)=C(COC(N)=O)CS[C@H]12)c1ccco1; assay: as §2
[21] = test system: C[C@@H](O)[C@H]1C(=O)N2C(C(=O)O)=C(S[C@@H]3CN[C@H](C(=O)N(C)C)C3)[C@H](C)[C@H]12; assay: as §2
Escherichia coli [22] = assay: Activity at Escherichia coli DH5alpha metallo-beta-lactamase VIM-11 assessed as compound hydrolysis per mg of total periplasmic protein by spectrometry
[23] = molecular target: Metallo-beta-lactamase (Escherichia coli) (UniProt Q5U7L7); assay: Activity at Escherichia coli DH5alpha metallo-beta-lactamase VIM-2 assessed as compound hydrolysis per mg of total periplasmic protein by spectrometry

Q: Which MIC (Escherichia coli [1]) does the source give for `CO/N=C(\C(=O)N[C@@H]1C(=O)N2C(C(=O)[O-])=C(C[n+]3cccc4c3CCC4)CS[C@H]12)c1csc(N)n1` [CEFPIROME] here?
A: 0.25 µg/mL (≈ 0.486 µM)

Q: And the MIC (Escherichia coli [2])?
A: 0.5 µg/mL (≈ 0.972 µM)

Q: What about the kcat/Km ratio (Pseudomonas aeruginosa) of the same compound?
A: 2

Q: What about the MIC (Escherichia coli [3]) of the same compound?
A: 0.015 µg/mL (≈ 0.0291 µM)

Q: Which results are given for `CC1(C)S[C@@H]2[C@H](NC(=O)Cc3ccccc3)C(=O)N2[C@H]1C(=O)O` [PENICILLIN G]?
A: MIC (Escherichia coli [1]): 128 µg/mL (≈ 383 µM); MIC (Escherichia coli [2]): 128 µg/mL (≈ 383 µM)

Q: Which kcat/Km [4] does the source give for “Metallo-beta-lactamase VIM-11 (Pseudomonas aeruginosa) (from UniProt C7DTR7)” here?
A: 1.8 ×10⁶ /M/s

Q: What about the kcat/Km [5] of the same compound?
A: 1.6 ×10⁶ /M/s

Q: And the kcat/Km [6]?
A: 1.8 ×10⁶ /M/s

Q: And the kcat/Km [7]?
A: 8.6 ×10⁶ /M/s

Q: What about the kcat/Km [8] of the same compound?
A: 1.3 ×10⁶ /M/s

Q: What about the kcat/Km [9] of the same compound?
A: 3.6 ×10⁶ /M/s

Q: What about the kcat/Km [10] of the same compound?
A: 5.6 ×10⁶ /M/s

Q: And the kcat/Km [11]?
A: 4.9 ×10⁶ /M/s

Q: What about the kcat/Km [12] of the same compound?
A: 1.4 ×10⁶ /M/s

Q: And the Km [13]?
A: 109 µM

Q: And the kcat [13]?
A: 190 s⁻¹

Q: And the Km [14]?
A: 8.2 µM

Q: What about the kcat [14] of the same compound?
A: 129 s⁻¹

Q: And the Km [15]?
A: 4.5 µM

Q: And the kcat [15]?
A: 81 s⁻¹

Q: And the Km [16]?
A: 7.4 µM

Q: What about the kcat [16] of the same compound?
A: 6.4 s⁻¹

Q: And the Km [17]?
A: 110 µM

Q: And the kcat [17]?
A: 14 s⁻¹

Q: What about the Km [18] of the same compound?
A: 11.4 µM

Q: And the kcat [18]?
A: 41.3 s⁻¹

Q: What about the Km [19] of the same compound?
A: 183 µM

Q: And the kcat [19]?
A: 102 s⁻¹

Q: What about the Km [20] of the same compound?
A: 5.5 µM

Q: And the kcat [20]?
A: 27 s⁻¹

Q: And the Km [21]?
A: 22.7 µM

Q: And the kcat [21]?
A: 3.2 s⁻¹

Q: Which MIC (Escherichia coli [1]) does the source give for `CC(=O)OCC1=C(C(=O)O)N2C(=O)[C@@H](NC(=O)Cc3cccs3)[C@H]2SC1` [CEPHALOTHIN] here?
A: 64 µg/mL (≈ 161 µM)

Q: What about the MIC (Escherichia coli [2]) of the same compound?
A: 64 µg/mL (≈ 161 µM)

Q: What about the kcat/Km ratio (Pseudomonas aeruginosa) of the same compound?
A: 1.12

Q: What about the Activity (Escherichia coli [22]) of the same compound?
A: 5.4 µmol

Q: And the MIC (Escherichia coli [3])?
A: 4 µg/mL (≈ 10.1 µM)

Q: What about the Activity [23] of the same compound?
A: 141 µmol

Q: What does the source list for `CO/N=C(\C(=O)N[C@@H]1C(=O)N2C(C(=O)O)=C(COC(C)=O)CS[C@H]12)c1csc(N)n1` [CEFOTAXIME]?
A: MIC (Escherichia coli [1]): 8 µg/mL (≈ 17.6 µM); MIC (Escherichia coli [2]): 4 µg/mL (≈ 8.78 µM); kcat/Km ratio (Pseudomonas aeruginosa): 0.78; MIC (Escherichia coli [3]): 0.03 µg/mL (≈ 0.0659 µM)

Q: Which MIC (Escherichia coli [1]) does the source give for `CC(C)(O/N=C(\C(=O)N[C@@H]1C(=O)N2C(C(=O)[O-])=C(C[n+]3ccccc3)CS[C@H]12)c1csc(N)n1)C(=O)O` [CEFTAZIDIME] here?
A: 8 µg/mL (≈ 14.6 µM)

Q: What about the MIC (Escherichia coli [2]) of the same compound?
A: 8 µg/mL (≈ 14.6 µM)

Q: What about the kcat/Km ratio (Pseudomonas aeruginosa) of the same compound?
A: 4.06

Q: And the Activity (Escherichia coli [22])?
A: 0.9 µmol

Q: What about the MIC (Escherichia coli [3]) of the same compound?
A: 0.125 µg/mL (≈ 0.229 µM)

Q: And the Activity [23]?
A: 5.5 µmol

Q: Which results are given for `CC1(C)S[C@@H]2[C@H](NC(=O)[C@H](N)c3ccccc3)C(=O)N2[C@H]1C(=O)O` [AMPICILLIN]?
A: MIC (Escherichia coli [1]): 256 µg/mL (≈ 733 µM); MIC (Escherichia coli [2]): 64 µg/mL (≈ 183 µM); kcat/Km ratio (Pseudomonas aeruginosa): 0.81; MIC (Escherichia coli [3]): 8 µg/mL (≈ 22.9 µM)
